{"source": "patent US7658917", "about": "(PRAECIS PHARMACEUTICALS, dated 2010)", "note": "Numbered stars: 1 amine (or outer) side, 2 acyl side, 3 side chain; on linkers, the order of the positions; unused ones are H or OH. Square brackets hold non-standard residues; d marks the D form. Ends that are not written are not given here. * marks the point of attachment. Cholyl = C[C@H](CCC(=O)*)[C@H]1CC[C@H]2[C@@H]3[C@H](O)C[C@@H]4C[C@H](O)CC[C@]4(C)[C@H]3C[C@H](O)[C@]12C; Deoxycholoyl = C[C@H](CCC(=O)*)[C@H]1CC[C@H]2[C@@H]3CC[C@@H]4C[C@H](O)CC[C@]4(C)[C@H]3C[C@H](O)[C@]12C; Lithocholoyl = C[C@H](CCC(=O)*)[C@H]1CC[C@H]2[C@@H]3CC[C@@H]4C[C@H](O)CC[C@]4(C)[C@H]3CC[C@]12C; Adp = aminoethyldibenzofuranylpropanoic acid, O=C(CCc1cccc2c1oc1c(CCN[*:1])cccc12)[*:2]; iminobiotinyl = N=C1N[C@H]2[C@H](CS[C@H]2CCCCC(=O)*)N1; Tyr(3-I) = N[C@@H](Cc1ccc(O)c(I)c1)C(=O)O; FICO = 5-(and 6-)-carboxyfluoresceinyl; NMeL = CN[C@@H](CC(C)C)C(=O)O; NMeV = CN[C@H](C(=O)O)C(C)C; NANA = N-acetyl neuraminyl; Boc = CC(C)(C)OC(=O)*", "data": [{"target": "natural β-amyloid peptide β-AP1-40 (human)", "sequence (peptide, as listed by the source)": "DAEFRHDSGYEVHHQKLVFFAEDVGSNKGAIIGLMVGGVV", "experiment": "cell-based or functional assay", "units": {"% Inhibition of Plateau; nucleation assay; 100 mole %": "%", "Fold Increase in Lag Time; nucleation assay; 100 mole %": "fold"}, "values": [{"binder": "Cholyl-KLVF-NH2 (SMILES CC(C)C[C@H](NC(=O)[C@H](CCCCN)NC(=O)CC[C@@H](C)[C@H]1CC[C@H]2[C@@H]3[C@H](O)C[C@@H]4C[C@H](O)CC[C@]4(C)[C@H]3C[C@H](O)[C@]12C)C(=O)N[C@H](C(=O)N[C@@H](Cc1ccccc1)C(N)=O)C(C)C)", "note": "[cholyl-Aβ16-19-amide (PPI-321 as printed in Table IV)]", "% Inhibition of Plateau; nucleation assay; 100 mole %": "~0", "Fold Increase in Lag Time; nucleation assay; 100 mole %": 1.2}]}, {"target": "natural β-amyloid peptide β-AP1-40 (human)", "experiment": "cell-based or functional assay", "remark": "another data set of the same source", "units": {"% Iext'n; seeded extension assay; 25 mole %": "%", "% Inucl'n; nucleation assay; 100 mole %": "%", "ΔLag; nucleation assay; 100 mole %": "ratio"}, "values": [{"binder": "Deoxycholoyl-LVFFA-OH", "note": "[DeoxyCA-LVFFA-oh]", "% Iext'n; seeded extension assay; 25 mole %": 82, "% Inucl'n; nucleation assay; 100 mole %": -114, "ΔLag; nucleation assay; 100 mole %": 3}, {"binder": "Cholyl-Phe-Phe-Val-OH (SMILES CC(C)[C@H](NC(=O)[C@H](Cc1ccccc1)NC(=O)[C@H](Cc1ccccc1)NC(=O)CC[C@@H](C)[C@H]1CC[C@H]2[C@@H]3[C@H](O)C[C@@H]4C[C@H](O)CC[C@]4(C)[C@H]3C[C@H](O)[C@]12C)C(=O)O)", "note": "[CA-FFV-oh]", "% Iext'n; seeded extension assay; 25 mole %": 7, "% Inucl'n; nucleation assay; 100 mole %": -33, "ΔLag; nucleation assay; 100 mole %": 2.2}, {"binder": "H-DDII[NMeL]VEH[Adp]LKLVFF-OH (SMILES CC[C@H](C)[C@H](NC(=O)[C@H](CC(=O)O)NC(=O)[C@@H](N)CC(=O)O)C(=O)N[C@H](C(=O)N(C)[C@@H](CC(C)C)C(=O)N[C@H](C(=O)N[C@@H](CCC(=O)O)C(=O)N[C@@H](Cc1c[nH]cn1)C(=O)NCCc1cccc2c1oc1c(CCC(=O)N[C@@H](CC(C)C)C(=O)N[C@@H](CCCCN)C(=O)N[C@@H](CC(C)C)C(=O)N[C@H](C(=O)N[C@@H](Cc3ccccc3)C(=O)N[C@@H](Cc3ccccc3)C(=O)O)C(C)C)cccc12)C(C)C)[C@@H](C)CC)", "note": "[h-DDII(N-Me-Leu)VEH(Adp)-LKLVFF-oh]", "% Iext'n; seeded extension assay; 25 mole %": 7, "% Inucl'n; nucleation assay; 100 mole %": -29, "ΔLag; nucleation assay; 100 mole %": 1.8}, {"binder": "H-DDIII[NMeV]DLL[Adp]HQKLVFF-OH (SMILES CC[C@H](C)[C@H](NC(=O)[C@H](CC(=O)O)NC(=O)[C@@H](N)CC(=O)O)C(=O)N[C@H](C(=O)N[C@H](C(=O)N(C)[C@H](C(=O)N[C@@H](CC(=O)O)C(=O)N[C@@H](CC(C)C)C(=O)N[C@@H](CC(C)C)C(=O)NCCc1cccc2c1oc1c(CCC(=O)N[C@@H](Cc3c[nH]cn3)C(=O)N[C@@H](CCC(N)=O)C(=O)N[C@@H](CCCCN)C(=O)N[C@@H](CC(C)C)C(=O)N[C@H](C(=O)N[C@@H](Cc3ccccc3)C(=O)N[C@@H](Cc3ccccc3)C(=O)O)C(C)C)cccc12)C(C)C)[C@@H](C)CC)[C@@H](C)CC)", "note": "[h-DDIII(N-Me-Val)DLL(Adp)-HQKLVFF-oh]", "% Iext'n; seeded extension assay; 25 mole %": 0, "% Inucl'n; nucleation assay; 100 mole %": -75, "ΔLag; nucleation assay; 100 mole %": 1.4}, {"binder": "Cholyl-FFVL-OH (SMILES CC(C)C[C@H](NC(=O)[C@@H](NC(=O)[C@H](Cc1ccccc1)NC(=O)[C@H](Cc1ccccc1)NC(=O)CC[C@@H](C)[C@H]1CC[C@H]2[C@@H]3[C@H](O)C[C@@H]4C[C@H](O)CC[C@]4(C)[C@H]3C[C@H](O)[C@]12C)C(C)C)C(=O)O)", "note": "[CA-FFVL-oh]", "% Iext'n; seeded extension assay; 25 mole %": 75, "% Inucl'n; nucleation assay; 100 mole %": 33, "ΔLag; nucleation assay; 100 mole %": 4.1}, {"binder": "Boc-LVFFA-OH", "note": "[t-Boc-LVFFA-oh]", "% Inucl'n; nucleation assay; 100 mole %": -5, "ΔLag; nucleation assay; 100 mole %": 3}, {"binder": "Cholyl-AVAFA-OH (SMILES CC(C)[C@H](NC(=O)[C@H](C)NC(=O)CC[C@@H](C)[C@H]1CC[C@H]2[C@@H]3[C@H](O)C[C@@H]4C[C@H](O)CC[C@]4(C)[C@H]3C[C@H](O)[C@]12C)C(=O)N[C@@H](C)C(=O)N[C@@H](Cc1ccccc1)C(=O)N[C@@H](C)C(=O)O)", "note": "[CA-AVAFA-oh]", "% Inucl'n; nucleation assay; 100 mole %": -15, "ΔLag; nucleation assay; 100 mole %": 1}, {"binder": "Cholyl-LVFAA-OH (SMILES CC(C)C[C@H](NC(=O)CC[C@@H](C)[C@H]1CC[C@H]2[C@@H]3[C@H](O)C[C@@H]4C[C@H](O)CC[C@]4(C)[C@H]3C[C@H](O)[C@]12C)C(=O)N[C@H](C(=O)N[C@@H](Cc1ccccc1)C(=O)N[C@@H](C)C(=O)N[C@@H](C)C(=O)O)C(C)C)", "note": "[CA-LVFAA-oh]", "% Inucl'n; nucleation assay; 100 mole %": 40, "ΔLag; nucleation assay; 100 mole %": 1.6}, {"binder": "Cholyl-[dL][dV][dF][dF][dA]-OH", "note": "[CA-LVFFA-oh (all D amino acids)]", "% Inucl'n; nucleation assay; 100 mole %": 27, "ΔLag; nucleation assay; 100 mole %": 2.8}, {"binder": "Cholyl-LVF[Tyr(3-I)]A-OH", "note": "[CA-LVF(IY)A-oh]", "% Inucl'n; nucleation assay; 100 mole %": 95, "ΔLag; nucleation assay; 100 mole %": "> 5"}, {"binder": "Lithocholoyl-LVFFA-OH", "note": "[LithoCA-LVFFA-oh]", "% Iext'n; seeded extension assay; 25 mole %": 0, "% Inucl'n; nucleation assay; 100 mole %": -229, "ΔLag; nucleation assay; 100 mole %": 2.8}, {"binder": "Cholyl-Gly-Phe-Phe-OH (SMILES C[C@H](CCC(=O)NCC(=O)N[C@@H](Cc1ccccc1)C(=O)N[C@@H](Cc1ccccc1)C(=O)O)[C@H]1CC[C@H]2[C@@H]3[C@H](O)C[C@@H]4C[C@H](O)CC[C@]4(C)[C@H]3C[C@H](O)[C@]12C)", "note": "[CA-GFF-oh]", "% Inucl'n; nucleation assay; 100 mole %": 0, "ΔLag; nucleation assay; 100 mole %": 1}]}, {"target": "natural β-amyloid peptide β-AP1-40 (human)", "experiment": "cell-based or functional assay", "remark": "another data set of the same source", "units": {"% Inhibition of Plateau; nucleation assay; 100 mole %": "%", "Fold Increase in Lag Time; nucleation assay; 100 mole %": "fold"}, "values": [{"binder": "{FICO}-AEDVGSNKGAIIGLM", "note": "[FICO-Aβ21-35]", "% Inhibition of Plateau; nucleation assay; 100 mole %": 25, "Fold Increase in Lag Time; nucleation assay; 100 mole %": 1.2}, {"binder": "{NANA}-DAEFRHDSGYEVHHQ", "note": "[NANA-Aβ1-15]", "% Inhibition of Plateau; nucleation assay; 100 mole %": "~0", "Fold Increase in Lag Time; nucleation assay; 100 mole %": "~1"}, {"binder": "{NANA}-HDSGYEVHHQKLVFF", "note": "[NANA-Aβ6-20]", "% Inhibition of Plateau; nucleation assay; 100 mole %": 64, "Fold Increase in Lag Time; nucleation assay; 100 mole %": 1.3}, {"binder": "iminobiotinyl-HDSGYEVHHQKLVFF", "note": "[iminobiotinyl-Aβ6-20]", "% Inhibition of Plateau; nucleation assay; 100 mole %": 44, "Fold Increase in Lag Time; nucleation assay; 100 mole %": 1.6}, {"binder": "Cholyl-SNKGAIIGLMVGGVV", "note": "[cholyl-Aβ26-40]", "% Inhibition of Plateau; nucleation assay; 100 mole %": 87, "Fold Increase in Lag Time; nucleation assay; 100 mole %": "> 4.5"}, {"binder": "Cholyl-DAEFRHDSGYEVHHQ", "note": "[cholyl-Aβ1-15]", "% Inhibition of Plateau; nucleation assay; 100 mole %": 100, "Fold Increase in Lag Time; nucleation assay; 100 mole %": "> 4.5"}, {"binder": "Cholyl-AEDVGSNKGAIIGLM", "note": "[cholyl-Aβ21-35]", "% Inhibition of Plateau; nucleation assay; 100 mole %": 51, "Fold Increase in Lag Time; nucleation assay; 100 mole %": 1.6}, {"binder": "{FICO}-DAEFRHDSGYEVHHQ", "note": "[FICO-Aβ1-15]", "% Inhibition of Plateau; nucleation assay; 100 mole %": 30, "Fold Increase in Lag Time; nucleation assay; 100 mole %": "~1"}, {"binder": "iminobiotinyl-DAEFRHDSGYEVHHQ", "note": "[iminobiotinyl-Aβ1-15]", "% Inhibition of Plateau; nucleation assay; 100 mole %": "~0", "Fold Increase in Lag Time; nucleation assay; 100 mole %": 1.2}, {"binder": "{NANA}-SNKGAIIGLMVGGVV", "note": "[NANA-Aβ26-40]", "% Inhibition of Plateau; nucleation assay; 100 mole %": "~0", "Fold Increase in Lag Time; nucleation assay; 100 mole %": 1.3}, {"binder": "Cholyl-KLVFFAEDVGSNKGA", "note": "[cholyl-Aβ16-30]", "% Inhibition of Plateau; nucleation assay; 100 mole %": 100, "Fold Increase in Lag Time; nucleation assay; 100 mole %": "> 4.5"}, {"binder": "{FICO}-HDSGYEVHHQKLVFF", "note": "[FICO-Aβ6-20]", "% Inhibition of Plateau; nucleation assay; 100 mole %": "~0", "Fold Increase in Lag Time; nucleation assay; 100 mole %": 1.9}, {"binder": "iminobiotinyl-SNKGAIIGLMVGGVV", "note": "[iminobiotinyl-Aβ26-40]", "% Inhibition of Plateau; nucleation assay; 100 mole %": "~0", "Fold Increase in Lag Time; nucleation assay; 100 mole %": 2.3}, {"binder": "iminobiotinyl-AEDVGSNKGAIIGLM", "note": "[iminobiotinyl-Aβ21-35]", "% Inhibition of Plateau; nucleation assay; 100 mole %": 66, "Fold Increase in Lag Time; nucleation assay; 100 mole %": "~1"}, {"binder": "{FICO}-KLVFFAEDVGSNKGA", "note": "[FICO-Aβ16-30]", "% Inhibition of Plateau; nucleation assay; 100 mole %": 59, "Fold Increase in Lag Time; nucleation assay; 100 mole %": 1.6}, {"binder": "{NANA}-AEDVGSNKGAIIGLM", "note": "[NANA-Aβ21-35]", "% Inhibition of Plateau; nucleation assay; 100 mole %": 53, "Fold Increase in Lag Time; nucleation assay; 100 mole %": "~1"}, {"binder": "Cholyl-EVHHQKLVFFAEDVG", "note": "[cholyl-Aβ11-25]", "% Inhibition of Plateau; nucleation assay; 100 mole %": "~0", "Fold Increase in Lag Time; nucleation assay; 100 mole %": 1.5}, {"binder": "iminobiotinyl-EVHHQKLVFFAEDVG", "note": "[iminobiotinyl-Aβ11-25]", "% Inhibition of Plateau; nucleation assay; 100 mole %": 40, "Fold Increase in Lag Time; nucleation assay; 100 mole %": 1.2}, {"binder": "{NANA}-KLVFFAEDVGSNKGA", "note": "[NANA-Aβ16-30]", "% Inhibition of Plateau; nucleation assay; 100 mole %": "~0", "Fold Increase in Lag Time; nucleation assay; 100 mole %": "~1"}, {"binder": "iminobiotinyl-KLVFFAEDVGSNKGA", "note": "[iminobiotinyl-Aβ16-30]", "% Inhibition of Plateau; nucleation assay; 100 mole %": 55, "Fold Increase in Lag Time; nucleation assay; 100 mole %": 1.2}]}]}
